From patent EP4424820A1

Biological target: NRPS-13 subunit B: SZ18 at the N-terminus of the C-terminal part of XtpS, split in the A-T linker of module two (Xenorhabdus nematophila ATCC 19061)
Assay: cell-based or functional assay

NRPS-13 subunit B: SZ18 at the N-terminus of the C-terminal part of XtpS, split in the A-T linker of module two (Xenorhabdus nematophila ATCC 19061), sequence (chain, as listed by the source): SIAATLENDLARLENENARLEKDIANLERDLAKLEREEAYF

- peptide yield of xenotetrapeptide 1 by the split synthetase NRPS-13 produced in E. coli DH10B::mtaA (HPLC-MS/MS): 155 mg/L
Substance: NRPS-13 subunit A: N-terminal part of XtpS, split in the A-T linker of module two, with SZ17 at its C-terminus (enzyme)
